This is an account of results in patent US20230075633A1.

One assay concerns the target human CEA (human) (UniProt P06731). The experiment in a line: cell-based or functional assay.
For assay [1], the target named is human CD3 (human) (UniProt P07766). The experiment in a line: flow cytometry on Jurkat cells.
The target is the same in assay [2]. The experiment in a line: flow cytometry on human PBMC (ND 12). Background: In flow cytometry, cells or beads pass a laser one at a time.

Chain of human CEA (human) (P06731 35-702, form in doubt): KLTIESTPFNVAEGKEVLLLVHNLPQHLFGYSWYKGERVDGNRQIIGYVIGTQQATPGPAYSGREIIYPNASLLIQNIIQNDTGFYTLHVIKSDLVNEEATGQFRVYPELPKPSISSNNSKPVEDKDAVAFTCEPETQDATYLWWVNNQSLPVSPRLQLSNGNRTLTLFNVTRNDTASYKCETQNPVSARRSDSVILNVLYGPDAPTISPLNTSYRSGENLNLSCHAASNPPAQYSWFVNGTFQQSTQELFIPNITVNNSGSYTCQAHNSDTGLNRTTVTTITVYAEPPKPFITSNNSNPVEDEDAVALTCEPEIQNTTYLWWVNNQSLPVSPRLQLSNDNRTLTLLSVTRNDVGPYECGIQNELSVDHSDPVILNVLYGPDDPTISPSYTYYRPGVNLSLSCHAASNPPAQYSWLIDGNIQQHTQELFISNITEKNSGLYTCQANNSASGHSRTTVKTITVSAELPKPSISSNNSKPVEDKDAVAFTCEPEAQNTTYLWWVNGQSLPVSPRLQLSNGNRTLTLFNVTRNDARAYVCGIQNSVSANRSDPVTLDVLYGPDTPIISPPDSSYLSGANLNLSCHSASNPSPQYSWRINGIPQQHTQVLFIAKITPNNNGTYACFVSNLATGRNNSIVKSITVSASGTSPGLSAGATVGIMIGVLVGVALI
Chain of human CD3 (human) (P07766 23-207): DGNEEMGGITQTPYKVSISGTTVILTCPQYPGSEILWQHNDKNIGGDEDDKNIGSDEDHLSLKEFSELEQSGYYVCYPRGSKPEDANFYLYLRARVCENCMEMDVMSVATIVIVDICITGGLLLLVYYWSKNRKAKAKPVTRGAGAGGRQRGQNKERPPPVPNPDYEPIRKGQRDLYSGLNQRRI

Usually EC50 stands for the concentration that produces a half-maximal response. Low readings indicate higher potency in that assay, high ones lower potency in that assay. In the assay with human CEA (human), Roche CEA-TCB (bispecific antibody) gave a cytolysis of LS174T cells by PBMC: EC50 of 0.005 nM; a cytolysis of MKN-45 cells by PBMC, E/T 20:1, 48 h: EC50 against that of CEA/CD3OPT1a3b2b1 BsAb of 50 fold; a cytolysis of MKN-45 cells by PBMC: EC50 of 0.001 nM. In the assay with human CD3 (human) [1], this substance returned an EC50 of 0.207 nM. This substance also gave an EC50 in the assay with human CD3 (human) [2] of 0.34 nM.
